From patent US20120172306A1, “Use of HASF as a Protective Agent Against Ischemic Tissue Damage” (Duke University, priority 2009, published 2012)

Experiments:
H9C2 cardiac myoblasts = assay: Annexin V/PI staining of H2O2 induced apoptosis; assay type: cell-based, rat; details: 10 nM, 30 min pre-incubation, 100 μM H2O2 2 h
Procedure: FIG. 2A is a bar graph showing % apoptosis. H9C2 cardiac myoblasts were pre-incubated ±10 nM of HASF recombinant protein for 30 min, and then challenged with 100 μM of H2O2 for 2 h. Apoptosis was quantified on a flow cytometer with Annexin V and Propidium Iodine (PI) staining. The sum of Annexin V positive cells+Annexin V/PI double positive cells is presented as percentage (%) of total cells. Human recombinant IGF protein was used as a positive control.
Rat cardiac myoblasts-H9C2 cells were obtained from ATCC and cultured in DMEM medium containing 10% of FBS, supplemented with 2 mM of L-glutamine, 100 U/ml of penicillin and 100 μg/ml of streptomycin (Invitrogen). Cells were seeded one day before at 1×10^5/well in 6-well plates. The following day, the cells were treated for 30 min with 10 nM of HASF the recombinant protein, the MBP or PBS were used as controls. Then the cells were challenged with 100 μM of H2O2 for 2 h. The attached and floating cells were collected. H2O2 induced apoptosis was then analyzed on a flow cytometer for Annexin V/Propidium Iodine double staining with the Vybrant Apoptosis Assay Kit #2 (Invitrogen).

adult rat cardiomyocytes = assay: Mitochondrial permeability transition pore (mPTP) channel opening after hypoxia/reoxygenation; assay type: cell-based; details: HASF (100 nM) prior to hypoxia/reoxygenation, vs control untreated samples
Procedure: FIG. 2D is a series of photomicrographs and a bar graph showing that HASF protects from mPTP channel opening and cell death after ischemia and reperfusion. Adult rat cardiac myocytes were cold-loaded with fluorescent calcein and CoCl2 and subjected to 3-5 h of ischemia followed by 30-60 min reperfusion. Mitochrondria were counterstained with TMRM. Under these conditions increased calcein intensity (green) indicate the entrapped calcein in mitochrondria which is due to reduction of open mPTP channels. Upper panel: Representative images of cells subjected to 3 h ischemia, 60 min reperfusion and cells treated with 100 nM HASF prior to 3 h ischemia, 60 min reperfusion. Lower panel: Quantitative fluorescence analysis of images represented above. The percentage of Calcein intensity was normalized to mitotracker, mitochondrial, intensity and the value was inverted and presented as of mPTP channel opening. Data are presented as means±stdev of values estimated from 8 images per condition.
FIG. 4D is a bar graph and a photomicrograph showing the effect of recombinant protein, HASF on mPTP channel as imaged by confocal microscopy. […] The presence of PKCepsilon inhibitor peptide caused the opening of the mPTP channel as observed by decreased (quenched) calcein intensity. The bar graph depicts measured fluorescence of calcein versus mitotracker intensity under different conditions. […]

B1: HASF: Hypoxia regulated Akt MSC Factor, secreted protein encoded by C3orf58; recombinant human protein without N-signal sequence, SEQ ID NO:1 or 2 (protein, UniProt Q8NDZ4 36-430, looked up)
Divergent protein kinase …: LASWQRNELTDRRFLQLNKCPACFGTSWCRRFLNGQVVFEAWGRLRLLDFLNVKNVYFAQYGEPREGGRRRVVLKRLGSQRELAQLDQSICKRATGRPRCDLLQAMPRTEFARLNGDVRLLTPEAVEGWSDLVHCPSQRLLDRLVRRYAETKDSGSFLLRNLKDSERMQLLLTLAFNPEPLVLQSFPSDEGWPFAKYLGACGRMVAVNYVGEELWSYFNAPWEKRVDLAWQLMEIAEQLTNNDFEFALYLLDVSFDNFAVGPRDGKVIIVDAENVLVADKRLIRQNKPENWDVWYESKFDDCDKEACLSFSKEILCARATVDHNYYAVCQNLLSRHATWRGTSGGLLHDPPSEIAKDGRLEALLDECANPKKRYGRFQAAKELREYLAQLSNNVR
modifications: 6xHis tag
H9C2 cardiac myoblasts
  decrease of H2O2 induced apoptosis (Annexin V/PI staining): ~50%
Adult rat cardiomyocytes
  mPTP channel opening: reduced compared to control untreated samples
